Target: the molecule itself
Experiment: high-speed atomic force microscopy

B1: PDI I289A (enzyme)
chain: not shown
- stoichiometry N: 2

Source: publication doi:10.1101/2021.01.04.425348 (bioRxiv, 2021)
